The values that follow come from patent publication US20100203055A1, “HAIR REGROWTH PROMOTER” (priority 2007, published 2010).

Assay [1] deals with T1, FGFR4 (Homo sapiens, UniProt P22455).
T1 construct: expressed in transfected cells; host or cells: Ba/F3 (mouse IL-3-dependent proB cell); R4/Ba/F3 cells under G-418
Nature of the assay: Inhibition of FGF18-stimulated DNA synthesis (cell growth) in FGFR4/BaF3 cells by FGF18 partial peptides. It is filed as cell-based, mouse. Particulars: test sample 1 μg/ml, 30 ng/ml FGF18, FIG. 3A. The source says: (§1) According to teachings disclosed in literature, the FGF receptor genes FGFR1c, FGFR2c, FGFR3c and FGFR4 were respectively introduced by means of genetic engineering into Ba/F3 cell strain (obtained from RIKEN BRC) which is mouse IL-3-dependent proB cell to thereby prepare cells on whose surface FGFR was compulsively expressed (Ornitz, D M., Xu, J., Colvin, J S., McEwen, D G, MacArthur, C A., Coulier, E, Gao, G. and Goldfarb, M., 1996. Receptor specificity of the fibroblast growth factor family. J. Biol. Chem. 271(25):15292-15297; Yoneda, A., Asada, M., Oda, Y, Suzuki, M. and Imamura, T., 2000. Engineering of an FGF-proteoglycan fusion protein with heparin-independent, mitogenic activity. Nat. Biotec. 18(6):641-644).
(§2) Using these cells, the antagonist activity of test samples [whether or not test samples inhibit the DNA synthesis of FGF18-stimulated cell (this is taken as 100%)] was examined while stimulating each receptor with 30 ng/ml FGF18, in the co-presence of each partial peptide of FGF18 at 1 μg/ml (FIG. 3A) or at 100 ng/ml (FIG. 3B). Briefly, an activity that inhibits the cell growth stimulating effect of FGF18 was analyzed. Correspondence between individual columns and test samples is as described below.

In assay [2] the test system is FGFR3c. As to the kind of experiment: Inhibition of FGF18-stimulated DNA synthesis (cell growth) in FGFR3c/BaF3 cells by FGF18 partial peptides. It is filed as cell-based, mouse.
Description: as §1, §2

Assay [3] concerns human dermal papilla cells (HFDP). As to the kind of experiment: Effect of FGF18 on gene expression of hair follicle growth promoting factors in dermal papilla cells. It is filed as cell-based. Particulars: dermal papilla cells cultured 24 hr with FGF18, then medium deprived of FGF18, versus continued FGF18-containing medium. On the procedure: Cultured human dermal papilla cells (HFDP; from adult human scalp; Toyobo) were subcultured in HFDP growth medium (20% fetal bovine serum-containing basal medium for dermal papilla cell; Toyobo) and used in experiments within two passages. The cells were treated with trypsin and seeded in collagen-coated dishes (Sumilon; 6 cm in diameter) at 4×10^5 cells/dish. The cells were maintained at 37° C. in HFDP medium. On the next day, the medium was exchanged for HEK medium (EpiLife™, 0.06 mM CaCl2, 10 μg/ml insulin, 0.1 ng/ml hEGF, 0.5 μg/ml hydrocortisone, 0.4% BPE), and then FGF18 was added to the medium. After the cells were cultured for 24 hr, the medium was exchanged for FGF18 free medium in the test sample group (“-FGF18”). The control group (“Control”) was cultured continuously in the FGF18-containing medium. Subsequently, the cells were harvested and the mRNA was extracted and purified. The expression levels of mRNA from VEGF (known as a hair follicle growth promoting factor) and noggin (known as a hair growth inhibiting factor) contained in the resultant mRNA were analyzed.

The subject of assay [4] is hair follicle growth. Nature of the assay: Hair growth inhibiting effect by continuous administration of FGF18 in anagen phase-induced C3H/HeN mice. It is filed as in vivo, mouse. On the procedure:
In order to examine the effect of FGF18 in vivo on hair follicle growth, FGF18 protein dissolved in phosphate buffered physiological saline (PBS) was administered to hair follicle anagen phase-induced mice. Briefly, dorsal hair of 50 day-old C3H/HeN male mice in telogen phase was depilated gently with fingers to thereby induce the start of hair follicle anagen phase. Then, FGF18 solution was injected into the dorsal skin subcutaneously from the vicinity of the tail (1 μg of FGF18 per mouse). The mice were maintained on a diet and water ad libitum. Starting from this day, FGF18 solution was injected subcutaneously into the dorsal skin every day at about the same time for consecutive 8 days. The control group received injection of PBS instead of FGF18. Nine days after the initial injection, the mice were euthanized under anesthesia. Full thickness skin samples were excised from the dorsal part and embedded in paraffin. The thus embedded skin samples were sliced into 4 μm thick sections with a microtome, stained with hematoxylin and observed under microscope.

Assay [5] relates to hair follicles. The conditions noted are these: single administration to mouse skin in telogen phase; Non-Patent Document 19 and Patent Document 2; cited from earlier work.
The mark [6] stands for this setting: test sample 1 μg/ml, 30 ng/ml FGF18, FIG. 3A.
The mark [7] stands for this setting: test sample 100 ng/ml, 30 ng/ml FGF18, FIG. 3B.

Entries after “also recorded” stand apart in the source; their conditions may differ.

T1 sequence (P22455 22-802, species assumed): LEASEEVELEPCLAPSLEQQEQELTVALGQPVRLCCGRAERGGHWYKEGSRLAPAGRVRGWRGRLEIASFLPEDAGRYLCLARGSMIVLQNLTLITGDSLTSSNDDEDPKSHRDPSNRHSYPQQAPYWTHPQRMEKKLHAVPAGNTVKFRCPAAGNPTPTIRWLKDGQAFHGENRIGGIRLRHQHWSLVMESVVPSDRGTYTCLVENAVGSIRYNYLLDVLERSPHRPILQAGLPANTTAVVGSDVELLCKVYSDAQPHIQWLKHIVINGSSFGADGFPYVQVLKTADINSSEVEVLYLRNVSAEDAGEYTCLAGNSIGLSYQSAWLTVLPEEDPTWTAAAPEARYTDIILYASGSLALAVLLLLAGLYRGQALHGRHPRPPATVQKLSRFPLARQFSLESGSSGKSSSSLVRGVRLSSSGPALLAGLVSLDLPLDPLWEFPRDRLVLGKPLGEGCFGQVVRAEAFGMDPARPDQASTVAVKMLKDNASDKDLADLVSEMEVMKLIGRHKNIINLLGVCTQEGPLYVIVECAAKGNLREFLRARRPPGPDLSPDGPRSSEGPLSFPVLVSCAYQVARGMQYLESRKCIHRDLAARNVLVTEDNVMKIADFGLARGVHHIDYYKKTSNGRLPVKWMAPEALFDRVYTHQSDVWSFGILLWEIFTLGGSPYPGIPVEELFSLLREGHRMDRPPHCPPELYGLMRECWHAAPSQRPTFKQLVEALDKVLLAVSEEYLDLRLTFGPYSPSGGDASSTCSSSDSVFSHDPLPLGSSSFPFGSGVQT

B1: d48: partial peptide of mouse FGF18, 48 amino acids deleted from N-terminus; SEQ ID NO: 21 (protein)
chain: MARGEDGDKYAQLLVETDTFGSQVRIKGKETEFYLCMNRKGKLVGKPDGTSKECVFIEKVLENNYTALMSAKYSGWYVGFTKKGRPRKGPKTRENQQDVHFMKRYPKGQAELQKPFKYTTVTKRSRRIRPTHPG
modifications: truncation mutant polypeptide of mouse FGF18(d48)
On to B1, for which, in assay [1], the “inhibition of the activity of FGF18 on FGFR4/BaF3 cells” value (“inhibition … on FGFR4/BaF3 cells” below) was “strongly inhibit”. In assay [2] (setting [6]), the “inhibition of the activity of FGF18 on FGFR3c/BaF3 cells” value (from here on “inhibition … on FGFR3c/BaF3 cells”) is reported as “strongly inhibit”.

B2: d95: partial peptide of mouse FGF18, 95 amino acids deleted from N-terminus; SEQ ID NO: 24 (protein)
chain: MGTSKECVFIEKVLENNYTALMSAKYSGWYVGFTKKGRPRKGPKTRENQQDVHFMKRYPKGQAELQKPFKYTTVTKRSRRIRPTHPG
modifications: truncation mutant polypeptide of mouse FGF18(d95)
Turning to B2, the “inhibition … on FGFR4/BaF3 cells” value in assay [1] was “strongly inhibit”. For the same molecule, the “inhibition … on FGFR3c/BaF3 cells” value in assay [2] (setting [7]) and in assay [2] (setting [6]) was “strongly inhibit” each time.

B3: d77: partial peptide of mouse FGF18, 77 amino acids deleted from N-terminus; SEQ ID NO: 23 (protein)
chain: MTEFYLCMNRKGKLVGKPDGTSKECVFIEKVLENNYTALMSAKYSGWYVGFTKKGRPRKGPKTRENQQDVHFMKRYPKGQAELQKPFKYTTVTKRSRRIRPTHPG
modifications: truncation mutant polypeptide of mouse FGF18(d77)
In the case of B3, the “inhibition … on FGFR4/BaF3 cells” value in assay [1] is reported as “strongly inhibit”. For the same molecule, the “inhibition … on FGFR3c/BaF3 cells” value in assay [2] (setting [6]) was “strongly inhibit”.

B4: d37: partial peptide of mouse FGF18, 37 amino acids deleted from N-terminus; SEQ ID NO: 20 (protein)
chain: MKHIQVLGRRISARGEDGDKYAQLLVETDTFGSQVRIKGKETEFYLCMNRKGKLVGKPDGTSKECVFIEKVLENNYTALMSAKYSGWYVGFTKKGRPRKGPKTRENQQDVHFMKRYPKGQAELQKPFKYTTVTKRSRRIRPTHPG
modifications: truncation mutant polypeptide of mouse FGF18(d37)
B4: the “inhibition … on FGFR3c/BaF3 cells” value in assay [2] (setting [6]) is given as “strongly inhibit”.

B5: d22: partial peptide of mouse FGF18, 22 amino acids deleted from N-terminus; SEQ ID NO: 19 (protein)
chain: MRKQLRLYQLYSRTSGKHIQVLGRRISARGEDGDKYAQLLVETDTFGSQVRIKGKETEFYLCMNRKGKLVGKPDGTSKECVFIEKVLENNYTALMSAKYSGWYVGFTKKGRPRKGPKTRENQQDVHFMKRYPKGQAELQKPFKYTTVTKRSRRIRPTHPG
modifications: truncation mutant polypeptide of mouse FGF18(d22)
Take B5: the “inhibition … on FGFR4/BaF3 cells” value in assay [1] is reported as “strongly inhibit”. Moreover, in assay [2] (setting [6]), the “inhibition … on FGFR3c/BaF3 cells” value is given as “strongly inhibit”.

B6: d16: partial peptide of mouse FGF18, 16 amino acids deleted from N-terminus; SEQ ID NO: 17 (protein)
chain: MARDDVSRKQLRLYQLYSRTSGKHIQVLGRRISARGEDGDKYAQLLVETDTFGSQVRIKGKETEFYLCMNRKGKLVGKPDGTSKECVFIEKVLENNYTALMSAKYSGWYVGFTKKGRPRKGPKTRENQQDVHFMKRYPKGQAELQKPFKYTTVTKRSRRIRPTHPG
modifications: truncation mutant polypeptide of mouse FGF18(d16)
Regarding B6, the “inhibition … on FGFR3c/BaF3 cells” value in assay [2] (setting [7]) and in assay [2] (setting [6]) was “strongly inhibit” in each case.

B7: FGF18: fibroblast growth factor 18 protein; secreted polypeptide of 181 amino acids; commercial FGF18 (PeproTech) used (protein)
chain: EENVDFRIHVENQTRARDDVSRKQLRLYQLYSRTSGKHIQVLGRRISARGEDGDKYAQLLVETDTFGSQVRIKGKETEFYLCMNRKGKLVGKPDGTSKECVFIEKVLENNYTALMSAKYSGWYVGFTKKGRPRKGPKTRENQQDVHFMKRYPKGQPELQKPFKYTTVTKRSRRIRPTHPA
B7: in assay [3], the “expression level of VEGF mRNA” value came to 4.8 fold and the “expression level of noggin mRNA” value is on record as 3.5 fold. Besides, the “hair growth / hair follicle growth” value in assay [4] (1 μg FGF18 per mouse subcutaneously once a day for 8 days after depilation, observed at day 9, versus PBS) is reported as “hair growth is strongly inhibited; also recorded: hair growth was markedly inhibited”. The “growth of hair follicles after stopping FGF18 administration” value in assay [4] (continuous administration under the same conditions, then stopped and mice raised thereafter) is recorded as “growth of hair follicles occurred”. Moreover, the “hair regrowth after single administration” value in assay [5] was “induces hair regrowth”.
